The source of these data is US20260158064A1 (NANJING PROBIO BIOTECH, published 2026).

Like-named read-outs stand apart in the source and are kept apart here.

The target in test [1] is human ROR1 Kringle-His domain protein (amino acid sequence at positions 308-395, Acrobiosystems, RO1-H5223) (human) (UniProt Q01973). The test can be described thus: indirect ELISA, antigen coated at 1 ug/ml. For orientation: In an ELISA, binding on a coated surface is turned into a signal by an enzyme label.
Test [2] has as its target human ROR1-His protein (fused with a His protein tag, Acrobiosystems, RO1-H522y) (human) (UniProt Q01973). Kind of test: indirect ELISA, antigen coated at 1 ug/ml.
In test [3] the target is human ROR1 expressed on the engineered cell line CHO-K1/ROR1 (human) (UniProt Q01973). Kind of test: flow cytometry of CHO-K1_ROR1 cells stained with the PE-labelled antibody; the ROR1- gate prints 0.75. (In general: Flow cytometry measures light scatter and fluorescence of single cells or particles in a stream.)
Test [4] has the same target. Kind of test: flow cytometry of CHO-K1_ROR1 cells stained with the PE-labelled antibody; the CHO-K1 row of the same box prints 20.8.
The target in test [5] is human ROR1 expressed on CHO cells (CHO-K1/Human ROR1 stable cells) (human) (UniProt Q01973). The test can be described thus: flow cytometry, 10 ug/ml on Human ROR1-CHO-K1 cells (curve 1), fluorescent secondary antibody.
human ROR1 expressed on CHO cells (CHO-K1/Human ROR1 stable cells) (human), sequence (Q01973 30-937): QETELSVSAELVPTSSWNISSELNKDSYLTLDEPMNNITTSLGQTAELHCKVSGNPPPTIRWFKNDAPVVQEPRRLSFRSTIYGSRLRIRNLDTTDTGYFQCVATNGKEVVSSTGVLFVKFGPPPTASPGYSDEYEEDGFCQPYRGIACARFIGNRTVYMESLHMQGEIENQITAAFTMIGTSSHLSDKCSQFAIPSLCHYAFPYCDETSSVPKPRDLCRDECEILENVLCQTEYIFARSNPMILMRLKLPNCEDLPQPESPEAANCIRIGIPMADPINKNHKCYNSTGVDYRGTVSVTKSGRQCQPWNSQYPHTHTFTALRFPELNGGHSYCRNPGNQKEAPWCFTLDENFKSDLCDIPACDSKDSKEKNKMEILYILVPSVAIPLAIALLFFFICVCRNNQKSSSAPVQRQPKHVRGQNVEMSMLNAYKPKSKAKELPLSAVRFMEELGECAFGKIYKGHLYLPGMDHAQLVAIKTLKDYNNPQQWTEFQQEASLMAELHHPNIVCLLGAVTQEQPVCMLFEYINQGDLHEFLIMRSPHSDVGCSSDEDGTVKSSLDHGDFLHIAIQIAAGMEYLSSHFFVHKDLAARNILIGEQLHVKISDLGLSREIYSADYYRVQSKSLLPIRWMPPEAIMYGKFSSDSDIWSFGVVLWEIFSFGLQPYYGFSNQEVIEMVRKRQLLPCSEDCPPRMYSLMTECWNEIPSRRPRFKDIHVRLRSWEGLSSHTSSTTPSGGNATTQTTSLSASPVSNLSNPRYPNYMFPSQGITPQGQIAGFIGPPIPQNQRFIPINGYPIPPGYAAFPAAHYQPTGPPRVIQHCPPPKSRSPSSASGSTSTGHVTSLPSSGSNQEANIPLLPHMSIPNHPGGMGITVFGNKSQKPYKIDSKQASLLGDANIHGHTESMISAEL
The target in test [6] is mouse ROR1 expressed on CHO cells (CHO-K1/Mouse ROR1 stable cells) (mouse) (UniProt Q9Z139). The test can be described thus: flow cytometry, 10 ug/ml on Mouse ROR1-CHO-K1 cells (curve 2), fluorescent secondary antibody.
mouse ROR1 expressed on CHO cells (CHO-K1/Mouse ROR1 stable cells) (mouse), sequence (Q9Z139 30-937): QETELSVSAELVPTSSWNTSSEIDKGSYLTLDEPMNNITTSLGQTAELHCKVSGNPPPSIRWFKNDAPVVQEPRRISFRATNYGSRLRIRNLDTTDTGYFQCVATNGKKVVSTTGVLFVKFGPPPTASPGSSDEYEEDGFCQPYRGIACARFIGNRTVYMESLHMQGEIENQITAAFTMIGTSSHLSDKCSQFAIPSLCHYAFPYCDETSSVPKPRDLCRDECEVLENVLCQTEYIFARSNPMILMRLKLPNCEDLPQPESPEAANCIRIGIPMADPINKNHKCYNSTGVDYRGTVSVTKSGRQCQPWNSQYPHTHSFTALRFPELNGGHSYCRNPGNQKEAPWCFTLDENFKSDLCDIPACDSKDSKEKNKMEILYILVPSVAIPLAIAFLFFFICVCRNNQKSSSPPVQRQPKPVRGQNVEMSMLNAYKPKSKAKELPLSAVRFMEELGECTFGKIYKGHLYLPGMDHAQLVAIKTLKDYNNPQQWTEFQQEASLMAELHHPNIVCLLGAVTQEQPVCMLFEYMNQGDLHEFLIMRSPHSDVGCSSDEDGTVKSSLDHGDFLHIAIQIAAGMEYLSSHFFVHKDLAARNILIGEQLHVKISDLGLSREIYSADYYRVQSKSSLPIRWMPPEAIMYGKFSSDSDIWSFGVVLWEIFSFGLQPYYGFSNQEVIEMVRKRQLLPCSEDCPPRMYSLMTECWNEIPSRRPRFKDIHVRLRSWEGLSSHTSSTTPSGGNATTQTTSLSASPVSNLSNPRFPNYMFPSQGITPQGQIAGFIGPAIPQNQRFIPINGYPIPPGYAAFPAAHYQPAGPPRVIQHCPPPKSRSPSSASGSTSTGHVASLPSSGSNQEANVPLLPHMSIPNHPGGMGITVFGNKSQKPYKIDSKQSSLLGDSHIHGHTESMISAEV
Test [7] concerns the target human ROR1 expressed on CHO cells (CHO-K1/Human ROR1 stable cells) (human) (UniProt Q01973). Kind of test: flow cytometry, 10 ug/ml on Human ROR1-CHO-K1 cells (curve 1), fluorescent secondary antibody. The source holds these as a separate data set.
For test [8], the target named is mouse ROR1 expressed on CHO cells (CHO-K1/Mouse ROR1 stable cells) (mouse) (UniProt Q9Z139). The test can be described thus: flow cytometry, 10 ug/ml on Mouse ROR1-CHO-K1 cells (curve 2), fluorescent secondary antibody. The source holds these as a separate data set.

human ROR1-His protein (fused with a His protein tag, Acrobiosystems, RO1-H522y) (human), sequence (Q01973 30-403 limits assumed): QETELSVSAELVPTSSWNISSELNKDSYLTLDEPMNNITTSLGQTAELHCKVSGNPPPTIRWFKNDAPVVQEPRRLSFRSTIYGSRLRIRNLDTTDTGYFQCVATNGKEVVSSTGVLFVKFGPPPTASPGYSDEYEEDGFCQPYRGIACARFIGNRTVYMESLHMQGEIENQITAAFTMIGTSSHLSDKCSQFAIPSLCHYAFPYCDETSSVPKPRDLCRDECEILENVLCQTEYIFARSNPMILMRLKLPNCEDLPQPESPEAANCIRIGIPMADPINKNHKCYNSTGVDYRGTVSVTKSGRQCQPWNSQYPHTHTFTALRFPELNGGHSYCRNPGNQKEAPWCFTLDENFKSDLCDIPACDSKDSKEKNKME
human ROR1 Kringle-His domain protein (amino acid sequence at positions 308-395, Acrobiosystems, RO1-H5223) (human), sequence (Q01973 308-395 limits assumed, form in doubt): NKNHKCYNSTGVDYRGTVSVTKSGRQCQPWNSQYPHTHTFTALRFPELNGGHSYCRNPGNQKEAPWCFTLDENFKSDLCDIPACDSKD

Turning to Positive reference antibody R11-scFv, the EC50 (usually the concentration giving half of the maximal effect) in test [1] is 1.17 µg/mL; in test [2] it was 0.104 µg/mL.
In test [3], “PE anti-human ROR1 Antibody (BioLegend, Cat #357804)” came in with an ROR1+ gate, percent of cells of 99.2. In addition, the Median : PE-H in test [4] worked out at 13100.
On to Human IgG (antibody), for which the Geometric Mean : Alexa Fluor 647-H in test [5] stood at 137; in test [6], 93.3; in test [7], 286; in test [8], 135.
